Tested on: Escherichia coli TOP10
Assay: shrunken log2 fold change of peptide-encoding DNA abundance (4.5 h post-induction vs induction); higher = less antimicrobial activity (less host growth inhibition)
Conditions: time post-induction: 4.5 h; library: site-saturation at positions 5, 18, 19, 20
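Also: peptides expressed intracellularly from a pBAD plasmid library in pooled LB shake-flask culture, induced with 0.3% L-arabinose, DNA abundance read by NGS, three biological replicates, DESeq2 with apeglm shrinkage.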

Row | Sequence | shrunken log2 fold change
1 | RRIRQRPPRLPRPRPRPDVDPRP | -0.152
2 | RRIRQRPPRLPRPRPRPDVRPRP | -0.023
3 | RRIRQRPPRLPRPRPRPDWRPRP | 0.0703
4 | RRIRQRPPRLPRPRPRPDYAPRP | -0.00674
5 | RRIRQRPPRLPRPRPRPDYQPRP | 0.00672
6 | RRIRQRPPRLPRPRPRPEAIPRP | -0.0935
7 | RRIRQRPPRLPRPRPRPECMPRP | -0.0252
8 | RRIRQRPPRLPRPRPRPEDSPRP | -0.0908
9 | RRIRQRPPRLPRPRPRPEEQPRP | 0.39
10 | RRIRQRPPRLPRPRPRPEEWPRP | 0.0824
11 | RRIRQRPPRLPRPRPRPEFKPRP | -0.0763
12 | RRIRQRPPRLPRPRPRPEHYPRP | -0.153
13 | RRIRQRPPRLPRPRPRPELEPRP | -0.0293
14 | RRIRQRPPRLPRPRPRPEMSPRP | 0.161
15 | RRIRQRPPRLPRPRPRPEPAPRP | 0.789
16 | RRIRQRPPRLPRPRPRPEPMPRP | 0.0452
17 | RRIRQRPPRLPRPRPRPEPNPRP | -0.0098
18 | RRIRQRPPRLPRPRPRPEQEPRP | -0.0311
19 | RRIRQRPPRLPRPRPRPEQKPRP | 0.039
20 | RRIRQRPPRLPRPRPRPEQNPRP | -0.012
21 | RRIRQRPPRLPRPRPRPERNPRP | 0.0526
22 | RRIRQRPPRLPRPRPRPESEPRP | 0.219
23 | RRIRQRPPRLPRPRPRPESIPRP | 0.0598
24 | RRIRQRPPRLPRPRPRPESWPRP | 0.461
25 | RRIRQRPPRLPRPRPRPEWIPRP | -0.00133

Row | Sequence | shrunken log2 fold change
26 | RRIRQRPPRLPRPRPRPEYKPRP | -0.124
27 | RRIRQRPPRLPRPRPRPEYSPRP | -0.191
28 | RRIRQRPPRLPRPRPRPEYWPRP | 0.0626
29 | RRIRQRPPRLPRPRPRPFAEPRP | -0.00183
30 | RRIRQRPPRLPRPRPRPFCNPRP | 0.0828
31 | RRIRQRPPRLPRPRPRPFCWPRP | 0.42
32 | RRIRQRPPRLPRPRPRPFEPPRP | -0.238
33 | RRIRQRPPRLPRPRPRPFEWPRP | 0.0112
34 | RRIRQRPPRLPRPRPRPFFLPRP | -0.376
35 | RRIRQRPPRLPRPRPRPFFMPRP | -0.129
36 | RRIRQRPPRLPRPRPRPFFPPRP | -0.0441
37 | RRIRQRPPRLPRPRPRPFFYPRP | -0.257
38 | RRIRQRPPRLPRPRPRPFIKPRP | -0.382
39 | RRIRQRPPRLPRPRPRPFIQPRP | -0.321
40 | RRIRQRPPRLPRPRPRPFKKPRP | 0.0942
41 | RRIRQRPPRLPRPRPRPFNCPRP | -0.0275
42 | RRIRQRPPRLPRPRPRPFNNPRP | -0.476
43 | RRIRQRPPRLPRPRPRPFPAPRP | -0.0923
44 | RRIRQRPPRLPRPRPRPFPFPRP | -0.00711
45 | RRIRQRPPRLPRPRPRPFPKPRP | 0.0141
46 | RRIRQRPPRLPRPRPRPFPLPRP | -0.0585
47 | RRIRQRPPRLPRPRPRPFRVPRP | -0.153
48 | RRIRQRPPRLPRPRPRPFSEPRP | -0.477
49 | RRIRQRPPRLPRPRPRPFSIPRP | -0.104
50 | RRIRQRPPRLPRPRPRPFTEPRP | -0.223

Row | Sequence | shrunken log2 fold change
51 | RRIRQRPPRLPRPRPRPFVCPRP | -0.0472
52 | RRIRQRPPRLPRPRPRPFVDPRP | -0.00879
53 | RRIRQRPPRLPRPRPRPFWNPRP | -0.00884
54 | RRIRQRPPRLPRPRPRPFYWPRP | -0.418
55 | RRIRQRPPRLPRPRPRPGACPRP | 0.206
56 | RRIRQRPPRLPRPRPRPGANPRP | 0.17
57 | RRIRQRPPRLPRPRPRPGATPRP | 0.273
58 | RRIRQRPPRLPRPRPRPGCDPRP | -0.229
59 | RRIRQRPPRLPRPRPRPGCYPRP | -0.451
60 | RRIRQRPPRLPRPRPRPGDCPRP | -0.0893
61 | RRIRQRPPRLPRPRPRPGEHPRP | -0.0241
62 | RRIRQRPPRLPRPRPRPGELPRP | -0.091
63 | RRIRQRPPRLPRPRPRPGEQPRP | 0.201
64 | RRIRQRPPRLPRPRPRPGFEPRP | 0.809
65 | RRIRQRPPRLPRPRPRPGFIPRP | -0.408
66 | RRIRQRPPRLPRPRPRPGGTPRP | 0.11
67 | RRIRQRPPRLPRPRPRPGHCPRP | 0.217
68 | RRIRQRPPRLPRPRPRPGHKPRP | -0.00306
69 | RRIRQRPPRLPRPRPRPGIEPRP | -0.113
70 | RRIRQRPPRLPRPRPRPGINPRP | -0.296
71 | RRIRQRPPRLPRPRPRPGISPRP | 0.0461
72 | RRIRQRPPRLPRPRPRPGKCPRP | 0.0125
73 | RRIRQRPPRLPRPRPRPGMAPRP | 0.0366
74 | RRIRQRPPRLPRPRPRPGMTPRP | 0.00903
75 | RRIRQRPPRLPRPRPRPGNSPRP | -0.391

Row | Sequence | shrunken log2 fold change
76 | RRIRQRPPRLPRPRPRPGPKPRP | -0.0957
77 | RRIRQRPPRLPRPRPRPGQAPRP | 0.0026
78 | RRIRQRPPRLPRPRPRPGQNPRP | -0.223
79 | RRIRQRPPRLPRPRPRPGRDPRP | 3.85
80 | RRIRQRPPRLPRPRPRPGSIPRP | -0.218
81 | RRIRQRPPRLPRPRPRPGSWPRP | 0.298
82 | RRIRQRPPRLPRPRPRPGVHPRP | 0.0118
83 | RRIRQRPPRLPRPRPRPGVRPRP | -0.0485
84 | RRIRQRPPRLPRPRPRPGWIPRP | 0.179
85 | RRIRQRPPRLPRPRPRPGYFPRP | 0.0104
86 | RRIRQRPPRLPRPRPRPHCGPRP | 0.0588
87 | RRIRQRPPRLPRPRPRPHCVPRP | -0.0218
88 | RRIRQRPPRLPRPRPRPHDEPRP | -0.158
89 | RRIRQRPPRLPRPRPRPHEMPRP | -0.111
90 | RRIRQRPPRLPRPRPRPHFGPRP | -0.0794
91 | RRIRQRPPRLPRPRPRPHFLPRP | -0.218
92 | RRIRQRPPRLPRPRPRPHFTPRP | -0.217
93 | RRIRQRPPRLPRPRPRPHGEPRP | 0.215
94 | RRIRQRPPRLPRPRPRPHHNPRP | -0.706
95 | RRIRQRPPRLPRPRPRPHHRPRP | 0.104
96 | RRIRQRPPRLPRPRPRPHICPRP | -0.049
97 | RRIRQRPPRLPRPRPRPHIRPRP | -0.209
98 | RRIRQRPPRLPRPRPRPHKHPRP | -0.502
99 | RRIRQRPPRLPRPRPRPHLAPRP | -0.0779
100 | RRIRQRPPRLPRPRPRPHLQPRP | -0.0325

Row | Sequence | shrunken log2 fold change
101 | RRIRQRPPRLPRPRPRPHMGPRP | -0.512
102 | RRIRQRPPRLPRPRPRPHNSPRP | -0.596
103 | RRIRQRPPRLPRPRPRPHPAPRP | -0.114
104 | RRIRQRPPRLPRPRPRPHPIPRP | -0.133
105 | RRIRQRPPRLPRPRPRPHPYPRP | -0.0131
106 | RRIRQRPPRLPRPRPRPHQIPRP | 0.0211
107 | RRIRQRPPRLPRPRPRPHTFPRP | -0.174
108 | RRIRQRPPRLPRPRPRPHVAPRP | -0.0333
109 | RRIRQRPPRLPRPRPRPHVRPRP | -0.00149
110 | RRIRQRPPRLPRPRPRPHVSPRP | -0.108
111 | RRIRQRPPRLPRPRPRPHWSPRP | -0.161
112 | RRIRQRPPRLPRPRPRPHYVPRP | -0.123
113 | RRIRQRPPRLPRPRPRPIALPRP | -0.213
114 | RRIRQRPPRLPRPRPRPICEPRP | 0.0925
115 | RRIRQRPPRLPRPRPRPICHPRP | -0.14
116 | RRIRQRPPRLPRPRPRPIDRPRP | 0.118
117 | RRIRQRPPRLPRPRPRPIETPRP | 0.00824
118 | RRIRQRPPRLPRPRPRPIFLPRP | 0.805
119 | RRIRQRPPRLPRPRPRPIFVPRP | -0.217
120 | RRIRQRPPRLPRPRPRPIHLPRP | -0.137
121 | RRIRQRPPRLPRPRPRPIIIPRP | -0.197
122 | RRIRQRPPRLPRPRPRPIKNPRP | -0.186
123 | RRIRQRPPRLPRPRPRPIKPPRP | 0.0492
124 | RRIRQRPPRLPRPRPRPILGPRP | 0.0906
125 | RRIRQRPPRLPRPRPRPIMYPRP | -0.0857

Row | Sequence | shrunken log2 fold change
126 | RRIRQRPPRLPRPRPRPINDPRP | -0.293
127 | RRIRQRPPRLPRPRPRPINVPRP | -0.0732
128 | RRIRQRPPRLPRPRPRPIPVPRP | -0.221
129 | RRIRQRPPRLPRPRPRPIQFPRP | -0.282
130 | RRIRQRPPRLPRPRPRPIQHPRP | 0.14
131 | RRIRQRPPRLPRPRPRPIQQPRP | -0.039
132 | RRIRQRPPRLPRPRPRPISTPRP | -0.503
133 | RRIRQRPPRLPRPRPRPISYPRP | 0.0146
134 | RRIRQRPPRLPRPRPRPITAPRP | -0.503
135 | RRIRQRPPRLPRPRPRPITKPRP | -0.0284
136 | RRIRQRPPRLPRPRPRPITRPRP | 0.0297
137 | RRIRQRPPRLPRPRPRPITSPRP | -0.0775
138 | RRIRQRPPRLPRPRPRPIVAPRP | -0.00611
139 | RRIRQRPPRLPRPRPRPIVWPRP | -0.287
140 | RRIRQRPPRLPRPRPRPIWNPRP | -0.183
141 | RRIRQRPPRLPRPRPRPIWYPRP | 0.0288
142 | RRIRQRPPRLPRPRPRPIYWPRP | 0.0909
143 | RRIRQRPPRLPRPRPRPKATPRP | 0.18
144 | RRIRQRPPRLPRPRPRPKCVPRP | -0.018
145 | RRIRQRPPRLPRPRPRPKESPRP | 0.0355
146 | RRIRQRPPRLPRPRPRPKGAPRP | 0.0159
147 | RRIRQRPPRLPRPRPRPKHDPRP | -0.121
148 | RRIRQRPPRLPRPRPRPKHKPRP | -0.0629
149 | RRIRQRPPRLPRPRPRPKHTPRP | -0.224
150 | RRIRQRPPRLPRPRPRPKISPRP | -0.144

Source: the supplement of paper PMC9112550, “Optimization of the antimicrobial peptide Bac7 by deep mutational scanning” (BMC Biology, 2022)
